Assay results from US7220569.

Biological target: T1, Factor X analogue with the furin cleavage site Arg-Arg-Lys-Arg/Ile (rFX^RRKR/I)
T1 chain 1: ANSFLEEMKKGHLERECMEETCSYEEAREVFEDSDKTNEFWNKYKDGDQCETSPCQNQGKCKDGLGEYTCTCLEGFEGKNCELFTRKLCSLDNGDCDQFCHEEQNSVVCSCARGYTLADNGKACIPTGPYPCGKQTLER
T1 chain 2: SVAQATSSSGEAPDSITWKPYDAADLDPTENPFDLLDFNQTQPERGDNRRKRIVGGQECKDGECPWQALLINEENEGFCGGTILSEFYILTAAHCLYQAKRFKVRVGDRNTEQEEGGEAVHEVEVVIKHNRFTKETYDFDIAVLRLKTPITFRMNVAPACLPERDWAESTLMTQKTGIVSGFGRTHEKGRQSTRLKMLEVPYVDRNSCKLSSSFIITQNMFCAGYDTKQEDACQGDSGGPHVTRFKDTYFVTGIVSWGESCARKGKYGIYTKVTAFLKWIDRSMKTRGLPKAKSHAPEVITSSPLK

B1: rfurin deltaCys-spacer-10xHis (purified r-furin derivative) (protein)
chain: DVYQEPTDPKFPQQWYLSGVTQRDLNVKAAWAQGYTGHGIVVSILDDGIEKNHPDLAGNYDPGASFDVNDQDPDPQPRYTQMNDNRHGTRCAGEVAAVANNGVCGVGVAYNARIGGVRMLDGEVTDAVEARSLGLNPNHIHIYSASWGPEDDGKTVDGPARLAEEAFFRGVSQGRGGLGSIFVWASGNGGREHDSCNCDGYTNSIYTLSISSATQFGNVPWYSEACSSTLATTYSSGNQNEKQIVTTDLRQKCTESHTGTSASAPLAAGIIALTLEANKNLTWRDMQHLVVQTSKPAHLNANDWATNGVGRKVSHSYGYGLLDAGAMVALAQNWTTVAPQRKCIIDILTEPKDIGKRLEVRKTVTACLGEPNHITRLEHAQARLTLSYNRRGDLAIHLVSPMGTRSTLLAARPHDYSADGFNDWAFMTTHSWDEDPSGEWVLEIENTSEANNYGTLTKFTLVLYGTAPEG
  FXa activity (mU/ml), chromogenic substrate S2337, incubation 0 hours: < 25 mU/ml
  FXa activity (mU/ml), chromogenic substrate S2337, incubation 6 hours: 56 mU/ml
  FXa activity (mU/ml), chromogenic substrate S2337, incubation 24 hours: 101 mU/ml
  FXa activity (mU/ml), chromogenic substrate S2337, incubation 48 hours: 124 mU/ml
  FXa activity (mU/ml), chromogenic substrate S2337, incubation 72 hours: 133 mU/ml
  conversion of the heavy chain to the activated form after 72 hours at 37 C (Western blot): about 50% of the starting material (HC) have been converted to the activated form
  specific activity (mU/µg), incubation 0 hours: 0 mU/µg
  specific activity (mU/µg), incubation 6 hours: 80 mU/µg
  specific activity (mU/µg), incubation 24 hours: 144 mU/µg
  specific activity (mU/µg), incubation 48 hours: 177 mU/µg
  specific activity (mU/µg), incubation 72 hours: 190 mU/µg
